Assay results taken from patent publication US20180185504A1 (Regeneron, published 2018).
One block for each binder: values may come before it.

Experiments:
[1] = molecular target: T1, monkey macaca fascicularis PRLR construct with an HA tag on HEK293/mfPRLR cells (macaca fascicularis, UniProt A0A2K5WXK1 25-619); experiment: FACS on HEK293/mfPRLR cells
T1 construct: stably transfected into HEK293
T1 sequence: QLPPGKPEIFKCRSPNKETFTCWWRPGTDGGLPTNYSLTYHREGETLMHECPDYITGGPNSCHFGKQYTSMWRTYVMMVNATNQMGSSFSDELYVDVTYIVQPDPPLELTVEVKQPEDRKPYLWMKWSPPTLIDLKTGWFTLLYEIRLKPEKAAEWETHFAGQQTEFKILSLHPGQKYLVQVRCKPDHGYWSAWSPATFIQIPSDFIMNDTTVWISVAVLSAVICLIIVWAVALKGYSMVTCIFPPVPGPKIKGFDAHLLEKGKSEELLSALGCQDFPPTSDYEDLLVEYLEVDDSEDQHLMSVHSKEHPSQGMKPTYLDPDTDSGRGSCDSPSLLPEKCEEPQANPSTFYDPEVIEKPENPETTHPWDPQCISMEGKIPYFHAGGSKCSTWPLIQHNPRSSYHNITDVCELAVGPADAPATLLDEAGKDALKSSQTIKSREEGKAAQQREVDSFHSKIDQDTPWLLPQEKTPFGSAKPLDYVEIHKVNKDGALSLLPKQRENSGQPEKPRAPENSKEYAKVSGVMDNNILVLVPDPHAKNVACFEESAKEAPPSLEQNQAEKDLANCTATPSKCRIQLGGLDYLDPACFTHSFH

[2] = molecular target: T2, human PRLR on cells (endogenous on T47D, T47D#11, MCF7); introduced in HEK293/hPRLR/STAT5-Luc, 293/hPRLR, … (human, UniProt P16471 25-622); experiment: cell-based or functional assay
T2 sequence: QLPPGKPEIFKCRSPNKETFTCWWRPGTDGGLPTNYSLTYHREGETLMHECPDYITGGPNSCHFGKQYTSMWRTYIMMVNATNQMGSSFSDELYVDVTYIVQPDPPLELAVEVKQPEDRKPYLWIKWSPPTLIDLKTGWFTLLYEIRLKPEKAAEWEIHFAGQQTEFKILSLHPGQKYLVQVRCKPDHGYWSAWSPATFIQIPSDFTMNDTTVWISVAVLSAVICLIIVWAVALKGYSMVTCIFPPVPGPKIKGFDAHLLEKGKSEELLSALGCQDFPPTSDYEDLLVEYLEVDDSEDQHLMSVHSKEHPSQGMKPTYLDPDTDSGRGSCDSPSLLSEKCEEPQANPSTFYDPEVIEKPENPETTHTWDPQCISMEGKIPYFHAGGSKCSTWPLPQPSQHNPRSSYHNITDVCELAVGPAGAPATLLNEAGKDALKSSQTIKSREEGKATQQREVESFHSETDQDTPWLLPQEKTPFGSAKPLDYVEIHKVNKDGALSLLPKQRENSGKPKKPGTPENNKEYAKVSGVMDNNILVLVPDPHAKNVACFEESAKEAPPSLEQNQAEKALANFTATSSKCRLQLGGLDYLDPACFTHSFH

[3] = molecular target: T2, human PRLR on cells (endogenous on …); experiment: cell-based or functional assay; remark: listed apart in the source
[4] = molecular target: T2, human PRLR on cells (endogenous on …); experiment: FACS on T47D cells
[5] = molecular target: T3, hPRLR.mmh (soluble monomeric human PRLR) (human); experiment: SPR (Biacore), antibody capture, 37 C
T3 construct: soluble monomeric PRLR protein
T3 chain: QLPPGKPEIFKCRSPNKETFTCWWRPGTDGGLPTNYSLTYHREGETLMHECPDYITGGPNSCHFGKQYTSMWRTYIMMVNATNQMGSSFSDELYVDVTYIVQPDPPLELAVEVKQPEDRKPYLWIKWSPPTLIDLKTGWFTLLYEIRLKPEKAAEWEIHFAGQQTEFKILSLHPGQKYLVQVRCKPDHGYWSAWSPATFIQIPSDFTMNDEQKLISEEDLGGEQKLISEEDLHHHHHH
Protocol: Measurements were conducted on a T200 Biacore instrument. Kinetic association (kₐ) and dissociation (kd) rate constants were determined by processing and fitting the data to a 1:1 binding model using Scrubber 2.0 curve fitting software.

[6] = molecular target: T4, mouse PRLR construct with an HA tag on HEK293/mPRLR cells (mouse, UniProt Q08501 20-608); experiment: FACS on HEK293/mPRLR cells
T4 construct: whole, on cells; stably transfected into HEK293
T4 sequence (looked up): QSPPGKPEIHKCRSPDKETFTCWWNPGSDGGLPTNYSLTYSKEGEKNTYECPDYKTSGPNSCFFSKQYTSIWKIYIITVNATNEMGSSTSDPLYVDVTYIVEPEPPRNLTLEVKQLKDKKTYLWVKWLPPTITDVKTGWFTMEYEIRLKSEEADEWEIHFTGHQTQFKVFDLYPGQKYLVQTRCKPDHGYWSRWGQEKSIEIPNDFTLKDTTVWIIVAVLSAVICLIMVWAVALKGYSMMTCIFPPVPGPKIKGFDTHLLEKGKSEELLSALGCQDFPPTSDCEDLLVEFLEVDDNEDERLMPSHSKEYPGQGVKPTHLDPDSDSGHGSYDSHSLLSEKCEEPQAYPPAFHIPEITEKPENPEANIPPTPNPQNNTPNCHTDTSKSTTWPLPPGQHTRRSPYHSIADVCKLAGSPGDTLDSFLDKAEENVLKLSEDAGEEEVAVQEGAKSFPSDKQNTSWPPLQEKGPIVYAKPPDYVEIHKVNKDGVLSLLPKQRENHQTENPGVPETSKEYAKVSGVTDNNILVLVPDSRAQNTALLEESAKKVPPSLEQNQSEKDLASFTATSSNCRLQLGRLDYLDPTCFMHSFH

FACS Cell Binding (Fold Above Background) [1]: 11 fold | % Internalization relative to Control I (T47D cells, imaging) [2]: 15.3% | Percent Blocking at 100 nM Antibody (STAT5-Luc reporter) [3]: 52% | FACS Cell Binding (Fold Above Background) [4]: 9 fold | Kd [5]: 681 nM | T 1/2 [5]: 0.4 min | koff [5]: 0.0277 s⁻¹ | kon [5]: 40600 M⁻¹ s⁻¹ | FACS Cell Binding (Fold Above Background) [6]: 2 fold
B1: H1H6959N2 (antibody, human IgG1, V domains shown)
VH: EVQLVESGGGLVQPGRSLRLSCAASGFTFDDYAMHWVRQAPGKGLEWVSGISWHSGIIGYADSVKGRFTISRDNAKNSLYLQMNSLRTEDAALYYCAKIGSYFYFDSWGQGTLVTVSS
VL: EIVLTQSPGTLSLSPGERATLSCRASQSVSSNYLAWYQQKPGQAPRLLIYGASSRATGIPDRFSGSGSGTDFTLTISRLEPEDFAVYYCQQFGSSGYTFGQGTNLEIK
notes: also called H2M6959N2

FACS Cell Binding (Fold Above Background) [1]: 29 fold | % Internalization relative to Control I (T47D cells, imaging) [2]: 139% | IC50 of Blocking 5 nM PRL [M] (STAT5-Luc reporter, HEK293/hPRLR/STAT5-Luc cells) [3]: 7.89e-09 M | Percent Blocking at 100 nM Antibody (STAT5-Luc reporter) [3]: 100% | FACS Cell Binding (Fold Above Background) [4]: 34 fold | Kd [5]: 6.34 nM | T 1/2 [5]: 3 min | koff [5]: 0.00385 s⁻¹ | kon [5]: 607000 M⁻¹ s⁻¹ | FACS Cell Binding (Fold Above Background) [6]: 1 fold
B2: H1H6804P (antibody, human IgG1, V domains shown)
VH: QVTLKESGPVLVKPTQTLSLTCTVSGFSLSDAGMGVSWIRQPPGKALEWLAHIFSNDGKSYSTSLKSRLTISKDTSKRQVVLTMTNMDPVDTATYYCARIRTGTYSLYLDYWGQGTLVTVSS
VL: DIQMTQSPSSLSASVGDRVTITCRASQSINSYLNWYQQKPGKAPKLLLYFASSLQSGVPSRFSGSGSGTDFTLTISSLQPEDFASYYCQESYSTPWTFGQGTKVEIK
notes: human IgG1 Fc (H1H)

FACS Cell Binding (Fold Above Background) [1]: 18 fold | % Internalization relative to Control I (T47D cells, imaging) [2]: 137% | Percent Blocking at 100 nM Antibody (STAT5-Luc reporter) [3]: 54% | FACS Cell Binding (Fold Above Background) [4]: 31 fold | Kd [5]: 0.607 nM | T 1/2 [5]: 12 min | koff [5]: 0.00096 s⁻¹ | kon [5]: 1.58e+06 M⁻¹ s⁻¹ | FACS Cell Binding (Fold Above Background) [6]: 1 fold
B3: H1H6966N (antibody, human IgG1, V domains shown)
VH: QVQLVQSGAEVQKPGASVKVSCKVSGYTLTALSIHWVRQAPGKGLEWMGNFDPGDGETIHAQKFQGRVTMTGDTSTDTAYMELSSLRSEDTAVYYCVGVTFDYWGQGTLVTVSS
VL: EIVMTQSPATLSVSPGERATLSCRASQSVASNLAWYQQKPGQAPRLLLYGASTRATGIPARFSGSGSGTEFTLTISSLQSEDFALYYCQHYNNWPLTFGGGTKVEIK
notes: also called H2M6966N

FACS Cell Binding (Fold Above Background) [1]: 23 fold | % Internalization relative to Control I (T47D cells, imaging) [2]: 120% | IC50 of Blocking 5 nM PRL [M] (STAT5-Luc reporter, HEK293/hPRLR/STAT5-Luc cells) [3]: 1.58e-09 M | Percent Blocking at 100 nM Antibody (STAT5-Luc reporter) [3]: 100% | FACS Cell Binding (Fold Above Background) [4]: 33 fold | Kd [5]: 16.2 nM | T 1/2 [5]: 5.8 min | koff [5]: 0.00198 s⁻¹ | kon [5]: 122000 M⁻¹ s⁻¹ | FACS Cell Binding (Fold Above Background) [6]: 1 fold
B4: H1H6960N (antibody, human IgG1, V domains shown)
VH: EVQLVESGGGLVKPGGSLRLSCAASGITFSSYSMNWVRQAPGKGLEWVSSISTRSSLIHYADSVKGRFTISRDNAKNSLYLQMNSLRDEDTAVYYCARWDAAAAFDYWGQGTLVIVSS
VL: DIQLTQSPSFLSASVGDRVTITCWASQGISSYLAWYQQKPGKAPKLLIYVASTLQSGVPSRFSGSGSGTEFTLTISSLQPEDFATYFCQQLNSYPLTFGGGTKVEIK
notes: also called H2M6960N
